The results in this text go back to patent US20210238265A1 (Biogen, published 2021).

The assay concerns the target T1, His-tagged Tau domain IV (AA 355-441 of hTau40) (human, UniProt O02828 317-403 (Capra hircus entry)).
T1 construct: Expressed in E. coli BL21 (DE3) and purified on Ni-NTA; not shown: N-terminal 6xHis tag from pRSET-A vector
As to the kind of experiment: Western blot of His-tagged tau domains and hTau40. The method, then:
DNA fragments, synthesized using GeneArt® (Invitrogen), which encode each Tau domain with 6×His tagged at the N-terminus were cloned into the pRSET-A expression vector (Invitrogen), were transfected into E. coli BL21 (DE3) (New England Biolabs). The expressions of the His-tagged Tau domains were induced by 0.5 mM IPTG for six hours before bacteria were lysed with lysozyme with sonication. The lysate was boiled for five minutes before being further purified with Ni-NTA Superflow Columns (Qiagen). The eluted His-tagged Tau domains were coated on ELISA plates or loaded on polyacrylamide gel for Western Blot. These sequentially overlapping tau domain polypeptides cover the full length of hTau40 (FIG. 13A).

T1 sequence (O02828 317-403): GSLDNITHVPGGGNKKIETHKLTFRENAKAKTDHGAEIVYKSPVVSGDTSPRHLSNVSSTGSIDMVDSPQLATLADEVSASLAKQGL

B1: Recombinant human antibody NI-105.4A3 (antibody, V domains shown)
VH: QVQLVESGGGAVQPGGSLRLSCAASGFTFSDYAMHWVRQAPGKGLQWVAVISYEGTYKYYADSVKGRFTISRDNSKNTLNLQMSSLRVEDTAVYFCVKARAFASGQRSTSTVPDYWGQGTLVTVSS
VL: SYELTQPPSVSVSPGQTARITCSGDALPKKYAYWYQQKSGQAPVLVIYEDNKRPSGIPERFSGSSSGTVATLTISGAQVDDEADYYCYSTDISGDLRVFGGGTKLTVL
Consider B1, for which the binding result is given as “no binding”.
